Measured values from patent publication US20050239064A1 (published 2005).
Values belong to the binder of their own block, whether it stands above or below them.

Assays:
[1] = biological target: T1, Drosophila Mastermind (Mam) tagged at its amino terminus with the Flag epitope, expressed from pcDNA3 in 293T … (Drosophila, UniProt P21519 1-1594); assay: co-expression in 293T cells, indirect immunofluorescence
T1 construct: Expressed inside transfected human 293T cells
Source text: Mastermind and the entire intracellular domain of Drosophila Notch were co-expressed from pcDNA3 vectors (obtained from Invitrogen, Carlsbad, Calif.). Intracellular Notch was visualized with the 9C6 monoclonal antibody (Rebay, 1983, Thesis, Yale University) and a Cy-2-conjugated goat anti-mouse IgG secondary antibody. Flag epitope-tagged Mam was visualized with an anti-Flag polyclonal antibody and a Cy-5-conjugated goat anti-rabbit secondary antibody. Nuclei were counterstained with DAPI. In the absence of Mam, intracellular Notch is homogeneously distributed throughout the nucleoplasm; however, when co-expressed with Mam, intracellular Notch accumulates in nuclear bodies.

[2] = biological target: T2, truncated Mam protein (carboxy-terminal 32 amino acids of full-length Drosophila Mastermind deleted) fused to … (Drosophila, UniProt P21519 1-1562); assay: yeast two-hybrid, lacZ reporter
T2 construct: also called truncated Mam fusion protein
T2 sequence (P21519 other isoform, or with tags, fused parts or gaps limits assumed): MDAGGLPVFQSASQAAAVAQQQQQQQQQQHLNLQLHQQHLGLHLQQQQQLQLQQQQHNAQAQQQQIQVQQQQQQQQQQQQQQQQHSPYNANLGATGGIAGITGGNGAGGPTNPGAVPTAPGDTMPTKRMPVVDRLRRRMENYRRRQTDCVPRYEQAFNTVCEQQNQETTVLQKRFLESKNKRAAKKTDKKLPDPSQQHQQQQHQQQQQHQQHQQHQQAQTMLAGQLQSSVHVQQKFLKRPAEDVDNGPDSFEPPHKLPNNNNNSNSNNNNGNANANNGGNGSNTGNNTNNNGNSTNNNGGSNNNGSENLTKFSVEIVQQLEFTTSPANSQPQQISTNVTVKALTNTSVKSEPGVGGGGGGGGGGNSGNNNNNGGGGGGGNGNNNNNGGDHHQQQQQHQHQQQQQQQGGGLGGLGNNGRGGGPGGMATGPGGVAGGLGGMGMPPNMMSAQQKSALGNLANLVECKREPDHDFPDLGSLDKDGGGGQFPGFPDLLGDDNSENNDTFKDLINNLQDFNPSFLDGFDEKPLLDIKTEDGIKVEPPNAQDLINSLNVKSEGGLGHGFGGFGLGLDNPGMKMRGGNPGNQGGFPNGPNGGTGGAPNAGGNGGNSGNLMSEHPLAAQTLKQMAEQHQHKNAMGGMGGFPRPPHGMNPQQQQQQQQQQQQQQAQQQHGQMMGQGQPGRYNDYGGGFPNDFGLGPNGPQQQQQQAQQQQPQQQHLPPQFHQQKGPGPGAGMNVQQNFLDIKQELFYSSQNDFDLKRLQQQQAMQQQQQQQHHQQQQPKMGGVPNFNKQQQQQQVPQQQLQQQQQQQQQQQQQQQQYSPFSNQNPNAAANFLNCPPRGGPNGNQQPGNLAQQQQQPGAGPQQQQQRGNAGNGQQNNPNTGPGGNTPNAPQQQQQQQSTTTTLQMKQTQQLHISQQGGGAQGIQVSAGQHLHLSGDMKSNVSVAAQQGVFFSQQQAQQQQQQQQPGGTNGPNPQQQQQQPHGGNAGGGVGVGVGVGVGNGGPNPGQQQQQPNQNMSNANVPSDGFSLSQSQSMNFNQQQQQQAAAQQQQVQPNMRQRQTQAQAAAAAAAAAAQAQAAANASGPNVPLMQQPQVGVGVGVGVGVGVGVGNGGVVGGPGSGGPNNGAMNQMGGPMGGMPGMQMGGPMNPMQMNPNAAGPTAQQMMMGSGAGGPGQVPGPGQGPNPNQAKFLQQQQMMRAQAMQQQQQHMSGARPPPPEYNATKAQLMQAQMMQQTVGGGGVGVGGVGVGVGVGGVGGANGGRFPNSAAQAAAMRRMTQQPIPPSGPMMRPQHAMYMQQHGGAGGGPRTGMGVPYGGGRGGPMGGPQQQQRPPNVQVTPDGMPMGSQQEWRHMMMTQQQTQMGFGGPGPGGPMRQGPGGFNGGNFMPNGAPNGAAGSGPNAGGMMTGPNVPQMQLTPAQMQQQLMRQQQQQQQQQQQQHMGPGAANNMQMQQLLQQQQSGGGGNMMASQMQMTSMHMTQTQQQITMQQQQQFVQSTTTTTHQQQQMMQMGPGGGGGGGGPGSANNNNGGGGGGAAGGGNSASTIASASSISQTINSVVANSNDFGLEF
Source text: FIG. 13 is a graph showing Mam-Mip complex driven transcription in a two-hybrid analysis in yeast. The yeast strain EGY48 was co-transformed with a plasmid encoding a Mam-Gal4 DNA binding domain fusion protein and either a plasmid encoding Mip1, Mip30 or Mip6 fused to the E. coli B42 transactivation domain, or a control plasmid (pJG4-5). The DNA binding domain was derived from plasmid pEG202. […] In the presence of glucose, the expression of Mam is repressed and only a very low level of β-galactosidase activity is detected. In the presence of galactose, the expression of Mam is induced and a large increase in β-galactosidase activity is observed with those proteins that interact with Mam. Extracts were prepared and activity measured from equal number of cells.
To elucidate the function of Mam and its role in Notch signaling, proteins with which Mam interacts were identified. Complementary DNA encoding a truncated Mam protein, in which the carboxy-terminal 32 amino acids of full-length Mam were deleted, was fused to the Gal4 DNA-binding domain encoded by the yeast expression vector pEG202. A truncated Mam fusion protein was used because it elicited a lower autonomous transactivational response from yeast reporter genes than full-length Mam. […]

T1 sequence (P21519 other isoform, or with tags, fused parts or gaps): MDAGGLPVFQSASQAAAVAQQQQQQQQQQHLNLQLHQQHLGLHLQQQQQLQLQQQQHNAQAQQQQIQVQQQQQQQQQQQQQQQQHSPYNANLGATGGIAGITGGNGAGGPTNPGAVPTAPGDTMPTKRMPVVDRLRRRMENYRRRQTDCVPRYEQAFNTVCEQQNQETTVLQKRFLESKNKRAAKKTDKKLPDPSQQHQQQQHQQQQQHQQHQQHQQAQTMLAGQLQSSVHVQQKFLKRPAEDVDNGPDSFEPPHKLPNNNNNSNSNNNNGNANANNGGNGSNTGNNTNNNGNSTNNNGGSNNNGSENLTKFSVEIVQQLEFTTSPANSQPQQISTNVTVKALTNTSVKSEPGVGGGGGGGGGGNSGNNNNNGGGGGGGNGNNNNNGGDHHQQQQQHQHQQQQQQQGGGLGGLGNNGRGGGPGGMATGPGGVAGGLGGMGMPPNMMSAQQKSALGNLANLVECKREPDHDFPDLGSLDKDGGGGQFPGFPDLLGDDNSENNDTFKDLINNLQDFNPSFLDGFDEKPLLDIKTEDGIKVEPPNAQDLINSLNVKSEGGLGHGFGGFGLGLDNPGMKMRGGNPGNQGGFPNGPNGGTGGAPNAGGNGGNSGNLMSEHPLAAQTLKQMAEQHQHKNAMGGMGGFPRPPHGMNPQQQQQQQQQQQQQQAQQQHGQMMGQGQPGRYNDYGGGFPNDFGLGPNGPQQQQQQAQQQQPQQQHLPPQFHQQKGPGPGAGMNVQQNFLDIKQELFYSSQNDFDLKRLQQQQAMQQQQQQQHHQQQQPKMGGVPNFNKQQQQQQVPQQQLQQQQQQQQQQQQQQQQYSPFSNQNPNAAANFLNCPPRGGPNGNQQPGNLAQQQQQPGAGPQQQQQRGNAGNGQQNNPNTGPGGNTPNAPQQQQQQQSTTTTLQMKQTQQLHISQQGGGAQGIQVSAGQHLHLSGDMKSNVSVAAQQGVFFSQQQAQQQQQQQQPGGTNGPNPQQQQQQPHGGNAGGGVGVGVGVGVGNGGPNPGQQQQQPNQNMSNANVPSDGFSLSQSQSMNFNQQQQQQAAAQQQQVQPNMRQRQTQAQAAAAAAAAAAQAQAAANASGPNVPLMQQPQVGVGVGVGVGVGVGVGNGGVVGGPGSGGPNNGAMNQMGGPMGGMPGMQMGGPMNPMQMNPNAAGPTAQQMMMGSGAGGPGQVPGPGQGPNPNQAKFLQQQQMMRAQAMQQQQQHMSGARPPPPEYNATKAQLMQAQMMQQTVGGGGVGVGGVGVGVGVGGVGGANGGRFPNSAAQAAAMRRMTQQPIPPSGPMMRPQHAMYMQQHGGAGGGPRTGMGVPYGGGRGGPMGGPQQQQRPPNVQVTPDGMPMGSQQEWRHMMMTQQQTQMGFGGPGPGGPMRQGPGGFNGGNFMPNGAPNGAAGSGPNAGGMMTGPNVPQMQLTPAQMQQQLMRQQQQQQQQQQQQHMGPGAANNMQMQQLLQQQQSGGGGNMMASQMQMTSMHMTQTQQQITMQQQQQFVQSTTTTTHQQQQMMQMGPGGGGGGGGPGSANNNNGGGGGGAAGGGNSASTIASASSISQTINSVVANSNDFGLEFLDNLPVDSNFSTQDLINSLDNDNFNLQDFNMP

binding result [1]: binds
B1: entire intracellular domain of Drosophila Notch, expressed from pcDNA3 in 293T cells (receptor, UniProt P07207 1767-2703, looked up)
chain: QRKRAHGVTWFPEGFRAPAAVMSRRRRDPHGQEMRNLNKQVAMQSQGVGQPGAHWSDDESDMPLPKRQRSDPVSGVGLGNNGGYASDHTMVSEYEEADQRVWSQAHLDVVDVRAIMTPPAHQDGGKHDVDARGPCGLTPLMIAAVRGGGLDTGEDIENNEDSTAQVISDLLAQGAELNATMDKTGETSLHLAARFARADAAKRLLDAGADANCQDNTGRTPLHAAVAADAMGVFQILLRNRATNLNARMHDGTTPLILAARLAIEGMVEDLITADADINAADNSGKTALHWAAAVNNTEAVNILLMHHANRDAQDDKDETPLFLAAREGSYEACKALLDNFANREITDHMDRLPRDVASERLHHDIVRLLDEHVPRSPQMLSMTPQAMIGSPPPGQQQPQLITQPTVISAGNGGNNGNGNASGKQSNQTAKQKAAKKAKLIEGSPDNGLDATGSLRRKASSKKTSAASKKAANLNGLNPGQLTGGVSGVPGVPPTNSAAQAAAAAAAAVAAMSHELEGSPVGVGMGGNLPSPYDTSSMYSNAMAAPLANGNPNTGAKQPPSYEDCIKNAQSMQSLQGNGLDMIKLDNYAYSMGSPFQQELLNGQGLGMNGNGQRNGVGPGVLPGGLCGMGGLSGAGNGNSHEQGLSPPYSNQSPPHSVQSSLALSPHAYLGSPSPAKSRPSLPTSPTHIQAMRHATQQKQFGGSNLNSLLGGANGGGVVGGGGGGGGGVGQGPQNSPVSLGIISPTGSDMGIMLAPPQSSKNSAIMQTISPQQQQQQQQQQQQQHQQQQQQQQQQQQQQQQQLGGLEFGSAGLDLNGFCGSPDSFHSGQMNPPSIQSSMSGSSPSTNMLSPSSQHNQQAFYQYLTPSSQHSGGHTPQHLVQTLDSYPTPSPESPGHWSSSSPRSNSDWSEGVQSPAANNLYISGGHQANKGSEAIYI
notes: domain: entire intracellular domain; also called intracellular Notch

binding result [2]: binds
B2: Mip6 two-hybrid clone, amino-terminally truncated, fused to the E. coli B42 transactivation domain encoded by pJG4-5 (other, not shown: large carriers)
chain: PKTKQSTFVVSPKPEPKSPAVAFLQPSIPLRSSNQPQTVVGSSSTGRKPLNVGLTMEWTKKKFFSAASGIPQRRQNQIKQPYANIVSPIRTYTQKSGTAPLMSTFRPTSSDMLSTLAISELEQESRLCHPKALFATKDETPKSSEAESLIINGIDSAADLLPKKAYISSEIKHVVDERTPLPMPKVPQIQKYLNSAVEPTVMRHDGKMKMPGEAVRNPSSSHIPRRANHSLADLSLASGDVSLYTIRDAQKF
